Six compounds from article PMC8307404, “Crystal Structure-Guided Design of Bisubstrate Inhibitors and Photoluminescent Probes for Protein Kinases of the PIM Family” (Molecules, 2021) can be followed below.

For orientation: Kd means the concentration at which binding is half-saturated. Read a low Kd as a tighter complex.

Series [1] addresses T1, IKK (Homo sapiens, UniProt Q14164).
T1 sequence (Q14164 1-716): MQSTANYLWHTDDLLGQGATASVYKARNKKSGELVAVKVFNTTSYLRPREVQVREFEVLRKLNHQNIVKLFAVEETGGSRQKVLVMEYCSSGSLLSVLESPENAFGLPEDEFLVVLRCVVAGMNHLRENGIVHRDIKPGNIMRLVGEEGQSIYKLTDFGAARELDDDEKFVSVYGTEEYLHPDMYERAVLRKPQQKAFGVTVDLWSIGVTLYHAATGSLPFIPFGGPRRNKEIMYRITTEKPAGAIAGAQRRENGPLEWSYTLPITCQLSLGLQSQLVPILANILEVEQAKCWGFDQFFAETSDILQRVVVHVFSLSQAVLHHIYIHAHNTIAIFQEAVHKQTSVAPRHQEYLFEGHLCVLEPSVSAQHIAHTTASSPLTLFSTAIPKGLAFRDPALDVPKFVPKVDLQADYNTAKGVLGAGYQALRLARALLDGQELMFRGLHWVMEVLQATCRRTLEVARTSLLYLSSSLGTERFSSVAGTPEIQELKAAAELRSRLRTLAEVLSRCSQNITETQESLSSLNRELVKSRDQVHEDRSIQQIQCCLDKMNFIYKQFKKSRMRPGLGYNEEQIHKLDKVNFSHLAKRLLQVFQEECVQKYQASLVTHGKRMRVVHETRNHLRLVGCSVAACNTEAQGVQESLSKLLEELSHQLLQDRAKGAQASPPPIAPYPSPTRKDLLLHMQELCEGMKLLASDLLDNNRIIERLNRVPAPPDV
In words: Kinase profiling (radiometric filter-binding). It counts as biochemical. Conditions: second of two IKK lines (Greek letter lost), 1 µM inhibitor, read-out: Residual activity, %. The method in brief:
(§1)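 Activity remaining (% of control without inhibitor) at 1 µM final compound; human kinases, ATP ≤ KM, radiometric filter binding.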

Series [2] concerns the target MAPKAP-K2 (Homo sapiens, UniProt P49137). In words: Kinase profiling (radiometric filter-binding). The series is classed as biochemical. Conditions: MAPKAP-K2, 1 µM inhibitor; read-out: Residual activity, %. A digest of the protocol: as §1
Series [3] addresses PKB (Homo sapiens, UniProt P31749). In words: Kinase profiling (radiometric filter-binding). It counts as biochemical. Conditions: first of two PKB lines (Greek letter lost), 1 µM inhibitor, read-out: Residual activity, %. A digest of the protocol:
as §1

Series [4] addresses RIPK2 (Homo sapiens, UniProt O43353). In words: Kinase profiling (radiometric filter-binding). It counts as biochemical. The note with it: RIPK2, 1 µM inhibitor; read-out: Residual activity, %. A digest of the protocol:
as §1

The target of series [5] is RSK2 (Homo sapiens, UniProt P51812). Briefly: Kinase profiling (radiometric filter-binding). The series is classed as biochemical. The note with it: RSK2, 1 µM inhibitor; read-out: Residual activity, %. The method in brief:
as §1

For series [6], the target named is T2, ULK2 (Homo sapiens, UniProt Q8IYT8).
T2 sequence (Q8IYT8 1-1036): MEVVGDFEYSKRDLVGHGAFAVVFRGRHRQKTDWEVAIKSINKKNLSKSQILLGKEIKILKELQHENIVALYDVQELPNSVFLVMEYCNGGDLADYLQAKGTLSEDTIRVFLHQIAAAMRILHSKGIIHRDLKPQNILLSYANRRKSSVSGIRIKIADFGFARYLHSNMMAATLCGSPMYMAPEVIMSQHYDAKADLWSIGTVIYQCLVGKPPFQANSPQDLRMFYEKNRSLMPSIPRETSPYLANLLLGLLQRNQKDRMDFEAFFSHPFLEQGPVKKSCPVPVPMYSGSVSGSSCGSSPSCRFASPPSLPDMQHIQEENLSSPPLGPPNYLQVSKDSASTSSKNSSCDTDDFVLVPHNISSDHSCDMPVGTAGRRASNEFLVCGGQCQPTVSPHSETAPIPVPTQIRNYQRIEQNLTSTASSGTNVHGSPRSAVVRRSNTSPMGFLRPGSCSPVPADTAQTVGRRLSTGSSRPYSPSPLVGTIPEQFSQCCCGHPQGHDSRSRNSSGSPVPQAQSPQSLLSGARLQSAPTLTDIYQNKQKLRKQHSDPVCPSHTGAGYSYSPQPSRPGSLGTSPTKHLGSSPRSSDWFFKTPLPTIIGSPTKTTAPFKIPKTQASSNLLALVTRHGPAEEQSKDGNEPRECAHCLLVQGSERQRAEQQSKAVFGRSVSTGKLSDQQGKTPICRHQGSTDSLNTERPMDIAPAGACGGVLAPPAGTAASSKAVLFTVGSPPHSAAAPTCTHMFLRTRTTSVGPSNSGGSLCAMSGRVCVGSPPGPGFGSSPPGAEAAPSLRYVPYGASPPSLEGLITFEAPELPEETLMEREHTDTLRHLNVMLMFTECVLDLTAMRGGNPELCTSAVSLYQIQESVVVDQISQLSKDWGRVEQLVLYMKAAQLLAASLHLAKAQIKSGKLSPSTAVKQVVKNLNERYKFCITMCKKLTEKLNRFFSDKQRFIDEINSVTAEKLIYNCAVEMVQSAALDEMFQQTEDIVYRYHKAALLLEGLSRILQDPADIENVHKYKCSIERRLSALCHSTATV
Briefly: Kinase profiling (radiometric filter-binding). Conditions: ULK2, 1 µM inhibitor; read-out: Residual activity, %. The series is classed as biochemical. The method in brief:
as §1

The target in series [7] is PIM1 (Homo sapiens, UniProt P11309). In words: Binding/displacement assay with FA or TGLI readout. Conditions: KD, nM (PIM-1), TGLI or FA readout; mean ± SEM, N = 2. Further details: made in house.
Experimental: (§2) The affinities of the compounds toward the PIM family PKs were determined in a binding/displacement assay with measurement of fluorescence anisotropy (FA) and time-gated luminescence intensity (TGLI) (Table 2). For the initial assessment of the selectivity of compounds, PKAcα was used as the reference basophilic kinase [10].
(§3) Optical FA measurement modules for 5-TAMRA-labeled compounds (ex. 540(20) nm, em. 590(20) nm and 590(20) nm), for Cy5-labeled compounds (ex. 590(50) nm, em. 675(50) nm and 675(50) nm), and optical TGLI measurement modules for ARC-1451 (ex. 330(60) nm, em. 590(50) nm), for ARC-1188 (ex. 330(60) nm, em. 675(50) nm) were used for assays with PHERAstar microplate reader (BMG Labtech; Ortenberg, Germany). TGLI measurements were performed with a delay time of 50 μs and integration of the signal for 150 μs. In each measurement, emission from 200 flashes of excitation radiation was collected. The measurement solutions (20 µL volumes) were prepared in black 384-well low-binding surface microtiter plates (Corning #4514; Kennebunk, ME, USA) and incubated for 20 min at 30 °C before the measurements. The assay buffer contained HEPES hemisodium salt (pH 7.4, 50 mM), NaCl (150 mM), dithiothreitol (5 mM), bovine serum albumin (0.5 mg/mL), and Tween-20 (0.005%). […] 5.04 (GraphPad Software, Inc.) was used for data analysis with FA [32] or TGLI [33] readouts.
Series [8] addresses PIM2 (Homo sapiens, UniProt Q9P1W9). In words: Binding/displacement assay with FA or TGLI readout. More on the design: made in house. Conditions: mean ± SEM, N = 2.
Experimental: as §2, §3

Square brackets hold non-standard residues; d marks the D form. Peptide text beside a SMILES is read from it. * marks the point of attachment. X3 = O=C(CCCCCNCc1nc2c(sc3cc(Br)cnc32)c(=O)[nH]1)*

Chain of RIPK2 (O43353 whole entry): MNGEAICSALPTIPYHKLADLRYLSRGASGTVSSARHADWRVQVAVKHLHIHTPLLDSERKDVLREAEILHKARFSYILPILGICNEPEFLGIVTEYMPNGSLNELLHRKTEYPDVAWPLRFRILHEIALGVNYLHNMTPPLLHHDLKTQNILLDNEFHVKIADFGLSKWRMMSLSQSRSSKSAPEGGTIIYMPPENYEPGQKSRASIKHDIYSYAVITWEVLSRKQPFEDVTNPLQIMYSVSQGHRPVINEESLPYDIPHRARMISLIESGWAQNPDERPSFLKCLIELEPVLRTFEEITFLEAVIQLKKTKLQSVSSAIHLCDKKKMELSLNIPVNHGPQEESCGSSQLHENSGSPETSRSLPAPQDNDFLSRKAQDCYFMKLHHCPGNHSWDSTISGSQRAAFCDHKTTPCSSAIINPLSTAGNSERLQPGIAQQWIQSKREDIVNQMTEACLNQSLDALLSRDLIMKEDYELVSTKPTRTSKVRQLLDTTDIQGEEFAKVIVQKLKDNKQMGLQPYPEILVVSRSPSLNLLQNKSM
Chain of PIM2 (Q9P1W9 whole entry): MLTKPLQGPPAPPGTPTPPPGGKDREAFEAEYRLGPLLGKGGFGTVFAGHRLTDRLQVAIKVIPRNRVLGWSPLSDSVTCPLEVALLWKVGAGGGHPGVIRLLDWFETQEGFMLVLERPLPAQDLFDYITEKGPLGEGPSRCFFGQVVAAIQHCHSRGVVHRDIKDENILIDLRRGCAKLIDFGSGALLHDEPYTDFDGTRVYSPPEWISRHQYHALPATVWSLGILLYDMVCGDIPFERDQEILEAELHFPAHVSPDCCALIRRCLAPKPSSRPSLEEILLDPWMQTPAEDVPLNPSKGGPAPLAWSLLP
Chain of PKB (P31749 whole entry): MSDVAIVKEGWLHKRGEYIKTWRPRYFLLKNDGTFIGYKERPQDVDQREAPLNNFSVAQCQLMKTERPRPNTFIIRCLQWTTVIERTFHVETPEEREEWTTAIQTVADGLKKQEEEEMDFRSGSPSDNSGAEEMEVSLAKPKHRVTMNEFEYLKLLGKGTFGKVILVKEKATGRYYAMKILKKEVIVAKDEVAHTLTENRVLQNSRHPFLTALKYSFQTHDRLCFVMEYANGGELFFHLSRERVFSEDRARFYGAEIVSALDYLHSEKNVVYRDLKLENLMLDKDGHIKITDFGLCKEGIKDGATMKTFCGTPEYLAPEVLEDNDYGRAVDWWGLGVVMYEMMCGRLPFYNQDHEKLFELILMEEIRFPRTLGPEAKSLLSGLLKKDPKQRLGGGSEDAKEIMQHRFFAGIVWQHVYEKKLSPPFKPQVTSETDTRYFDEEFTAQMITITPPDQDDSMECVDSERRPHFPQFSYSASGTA
Chain of MAPKAP-K2 (P49137 whole entry): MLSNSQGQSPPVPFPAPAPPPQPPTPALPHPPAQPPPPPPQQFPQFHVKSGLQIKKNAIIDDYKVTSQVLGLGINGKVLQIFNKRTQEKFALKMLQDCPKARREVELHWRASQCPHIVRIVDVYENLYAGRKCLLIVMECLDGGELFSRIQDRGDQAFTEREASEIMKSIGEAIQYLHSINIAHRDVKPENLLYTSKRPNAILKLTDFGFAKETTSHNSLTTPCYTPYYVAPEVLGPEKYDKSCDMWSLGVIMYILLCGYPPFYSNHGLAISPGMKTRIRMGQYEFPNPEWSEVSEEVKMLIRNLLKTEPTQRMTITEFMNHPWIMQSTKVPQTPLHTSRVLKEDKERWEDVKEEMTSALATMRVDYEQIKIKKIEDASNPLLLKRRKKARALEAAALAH
Chain of RSK2 (P51812 whole entry): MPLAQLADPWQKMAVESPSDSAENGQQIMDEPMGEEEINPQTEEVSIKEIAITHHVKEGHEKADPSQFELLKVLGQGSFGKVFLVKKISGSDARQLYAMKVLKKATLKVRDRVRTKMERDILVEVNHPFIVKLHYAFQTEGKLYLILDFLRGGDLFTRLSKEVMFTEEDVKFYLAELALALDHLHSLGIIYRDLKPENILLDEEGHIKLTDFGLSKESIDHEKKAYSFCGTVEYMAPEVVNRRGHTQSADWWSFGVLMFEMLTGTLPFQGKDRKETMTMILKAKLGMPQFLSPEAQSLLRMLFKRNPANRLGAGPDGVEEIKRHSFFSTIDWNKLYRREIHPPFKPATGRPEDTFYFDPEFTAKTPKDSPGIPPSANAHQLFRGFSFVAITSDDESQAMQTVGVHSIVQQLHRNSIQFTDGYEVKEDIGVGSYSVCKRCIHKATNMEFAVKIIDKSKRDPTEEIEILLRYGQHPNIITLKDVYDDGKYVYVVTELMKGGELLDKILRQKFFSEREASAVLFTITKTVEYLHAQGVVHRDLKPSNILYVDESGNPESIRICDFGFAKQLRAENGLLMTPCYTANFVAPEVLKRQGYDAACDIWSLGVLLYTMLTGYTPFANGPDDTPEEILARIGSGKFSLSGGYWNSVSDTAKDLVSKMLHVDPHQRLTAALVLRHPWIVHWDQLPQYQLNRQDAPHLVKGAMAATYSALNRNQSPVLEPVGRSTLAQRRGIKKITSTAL
Chain of PIM1 (P11309 whole entry): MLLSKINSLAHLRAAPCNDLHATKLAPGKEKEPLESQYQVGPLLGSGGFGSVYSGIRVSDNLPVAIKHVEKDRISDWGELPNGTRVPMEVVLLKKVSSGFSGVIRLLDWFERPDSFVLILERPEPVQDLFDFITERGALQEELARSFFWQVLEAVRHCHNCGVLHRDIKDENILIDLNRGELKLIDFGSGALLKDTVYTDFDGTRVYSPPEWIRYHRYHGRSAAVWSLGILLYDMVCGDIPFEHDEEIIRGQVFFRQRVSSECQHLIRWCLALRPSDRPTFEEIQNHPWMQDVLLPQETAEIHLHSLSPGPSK

As to `N=C(N)NCCC[C@@H](NC(=O)CCCCCNC(=O)Cn1cnc2c(I)c(I)c(I)c(I)c21)C(=O)N[C@H](CCCNC(=N)N)C(=O)N[C@H](CCCNC(=N)N)C(=O)N[C@H](CCCNC(=N)N)C(=O)N[C@H](CCCNC(=N)N)C(=O)N[C@H](CCCNC(=N)N)C(=O)N[C@H](CCCCN)C(N)=O` [ARC-3125, TIBI-CH2-C(=O)-Ahx-(D-Arg)6-D-Lys-NH2], the remaining activity at 1 µM in series [1] was 77 ± 4%; in series [2], 51 ± 5%; in series [3], -1 ± 1%; in series [4], 37 ± 6%; in series [5], 17 ± 1%; in series [6], 34 ± 3%.
Regarding `N=C(N)NCCC[C@@H](NC(=O)CCCCCNCc1nc2c(sc3cc(Br)cnc32)c(=O)[nH]1)C(=O)N[C@H](CCCNC(=N)N)C(=O)N[C@H](CCCNC(=N)N)C(=O)N[C@H](CCCNC(=N)N)C(=O)N[C@H](CCCNC(=N)N)C(=O)N[C@H](CCCNC(=N)N)C(=O)N[C@H](CCCCN)C(N)=O` [ARC-3126, BPTP-Ahx-(D-Arg)6-D-Lys-NH2] (X3-[dR][dR][dR][dR][dR][dR][dK]-NH2), the remaining activity at 1 µM in series [1] was 118 ± 12%; in series [3], 80 ± 4%; in series [4] it was 99 ± 6%; in series [5], 86 ± 15%; in series [6], 104 ± 9%. The Kd in series [7] was determined as 1.8 ± 0.7 nM; in series [8], 2.9 ± 0.5 nM.
With `N=C(N)NCCC[C@@H](NC(=O)CNC(=O)[C@@H](CCCNC(=N)N)NC(=O)[C@@H](CCCNC(=N)N)NC(=O)CCCCCCCNCc1nc2c(sc3cc(Br)cnc32)c(=O)[nH]1)C(=O)N[C@H](CCCCN)C(N)=O` [Compound 1, BPTP-Aoc-(D-Arg)2-Gly-D-Arg-D-Lys-NH2], the remaining activity at 1 µM in series [1] is 116 ± 9%; in series [2] it was 107 ± 10%; in series [3], 101 ± 6%; in series [4] it was 62 ± 7%; in series [5], 109 ± 11%; in series [6], 115 ± 5%. Also, the Kd was 11.4 ± 1 nM in series [7] and 64 ± 8 nM in series [8].
Take `N=C(N)NCCC[C@@H](NC(=O)CNC(=O)[C@@H](CCCNC(=N)N)NC(=O)[C@@H](CCCNC(=N)N)NC(=O)CCCCCCCNCc1nc2c(sc3ccc(Br)cc32)c(=O)[nH]1)C(=O)N[C@H](CCCCN)C(N)=O` [Compound 2, BBTP-Aoc-(D-Arg)2-Gly-D-Arg-D-Lys-NH2]: the remaining activity at 1 µM in series [1] is 104 ± 15%; in series [2], 107 ± 2%; in series [3], 67 ± 7%; in series [4] it was 72%; in series [5], 92 ± 10%; in series [6] it was 127 ± 9%. For the same compound, the Kd in series [7] is 0.4 ± 0.1 nM; in series [8], 3.8 ± 0.2 nM.
As for `N=C(N)NCCC[C@@H](NC(=O)CNC(=O)[C@@H](CCCNC(=N)N)NC(=O)[C@@H](CCCNC(=N)N)NC(=O)Cn1cc(CNCc2nc3c(sc4ccc(Br)cc43)c(=O)[nH]2)nn1)C(=O)N[C@H](CCCCN)C(N)=O` [Compound 3, BBTP-Amt-(D-Arg)2-Gly-D-Arg-D-Lys-NH2], the remaining activity at 1 µM in series [1] was determined as 122 ± 12%; in series [2], 114 ± 4%; in series [3], 72 ± 12%; in series [4], 71 ± 8%; in series [5], 106 ± 11%; in series [6], 104 ± 11%. Besides, the results for the Kd in series [7] and in series [8] were 0.7 ± 0.2 nM and 9.9 ± 0.8 nM, respectively.
With `CN(C)c1ccc2c(c1)Oc1cc(N(C)C)ccc1C21OC(=O)c2cc(C(=O)NCCCC[C@@H](NC(=O)[C@@H](CCCNC(=N)N)NC(=O)CNC(=O)[C@@H](CCCNC(=N)N)NC(=O)[C@@H](CCCNC(=N)N)NC(=O)CCCCc3cn(Cc4nc5c(sc6ccc(Br)cc65)c(=O)[nH]4)nn3)C(N)=O)ccc21` [Compound 8, BBTP-Tap-(D-Arg)2-Gly-D-Arg-[D-Lys(5-TAMRA)]-NH2], the Kd amounted to 20.5 ± 4 nM in series [7] and 157 ± 39 nM in series [8].
